Changes are numbered by the printed parent chain. Where two headings read alike, the source gives them in different places.
Columns and labels:
[1] = molecular target: T1, canine NGF (canine, UniProt Q29074 110-229 (pig entry), limits assumed); test: cell-based or functional assay
T1 chain: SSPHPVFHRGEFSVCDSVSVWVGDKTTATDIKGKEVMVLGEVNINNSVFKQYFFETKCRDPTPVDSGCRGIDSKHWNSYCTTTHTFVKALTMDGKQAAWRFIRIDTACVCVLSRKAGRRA

[2] = molecular target: T1, canine NGF; test: cell-based or functional assay
[3] = molecular target: T1, canine NGF; test: cell-based or functional assay
[4] = molecular target: human NGF (human) (UniProt P01138); test: SPR (Biacore T200), 100 nM mAb on NGF chip, vs parent mAb
Chain of human NGF (human) (P01138 other isoform, or with tags, fused parts or gaps limits assumed): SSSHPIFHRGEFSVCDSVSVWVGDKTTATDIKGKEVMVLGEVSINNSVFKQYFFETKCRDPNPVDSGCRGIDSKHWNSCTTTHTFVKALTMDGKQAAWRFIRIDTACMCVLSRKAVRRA

[5] = molecular target: rat NGF (rat) (UniProt P25427); test: as above
Chain of rat NGF (rat) (P25427 122-241 limits assumed): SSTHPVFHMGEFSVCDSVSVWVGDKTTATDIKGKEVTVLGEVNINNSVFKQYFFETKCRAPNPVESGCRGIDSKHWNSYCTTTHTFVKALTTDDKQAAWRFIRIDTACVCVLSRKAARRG

B1: ZTS-842 (antibody, V domains shown)
VH: EVQLVESGGDLVKPGGSLRLSCVASGFTFSTYGINWVRQAPGKGLQWVAYISSGGSSTYYADPVKGRFTISRDDAKNMLYLQMNSLRAEDTAIYYCAGSRYTYAYGGGYEFHFWGQGTLVTVSS
VL: QAVLNQPASVSGALGQKVTISCSGSTMDIDIFGVSWYQQLPGKAPKLLVDSDGDRPSGIPDRFSGSRSGNSGTLTITGLQAEDEADYHCQSGDSTLGALAIFGGGTHVTVL
[1]
  IC50 (read off the curve), canine NGF-induced TF-1 cell proliferation: ~5 ng/mL
[2]
  IC50 (read off the curve), canine NGF-induced pERK-1/2 in caTrkA-CHO cells: ~0.1 µg/ml

B2: fel48L2 1.1 (antibody, V domains shown)
VH: B1 VH with E1D, S21T, D74N, S85N, R87K, A88T, I93T
VL: QAVLNQPSSVSGALGQRVTISCSGSTMDIDIFGVSWYQQIPGMAPKTIIDSDGDRPSGVPDRFSGSKSGSTGTLTITGLQAEDEADYYCQSGDSTLGALAIFGGGTHVTVLG
[3]
  IC50 (read off the curve), canine NGF-induced TF-1 cell proliferation: ~7 ng/mL

B3: can9L12VH_K98A (antibody, V domains shown)
VH: EVQLVESGGDLVKPGGSLRLSCVASGFTFSSHGMHWVRQSPGKGLQWVAVINSGGSSTYYTDAVKGRFTISRDNAKNTVYLQMNSLRAEDTAMYYCAAESVGGWEQLVGPHFDYWGQGTLVIVSS
VL: QSVLTQPTSVSGSLGQRVTISCSGSTNNIGILGASWYQLFPGKAPKLLVYGNGNRPSGVPDRFSGADSGDSVTLTITGLQAEDEADYYCQSFDTTLGAHVFGGGTHLTVL
[4]
  Percent Similarity Score (%): 8.58%
[5]
  Percent Similarity Score (%): 7.92%

B4: can9L12VH_W104A (antibody, V domains shown)
VH: B3 VH with A98K, W104A
VL: B3 VL
[5]
  Percent Similarity Score (%): 8.2%

B5: ZTS-841 (antibody, V domains shown)
VH: B3 VH with A98K
VL: B3 VL
[1]
  IC50 (read off the curve), canine NGF-induced TF-1 cell proliferation: ~8 ng/mL
[2]
  IC50 (read off the curve), canine NGF-induced pERK-1/2 in caTrkA-CHO cells: ~0.2 µg/ml

B6: can9L12VH_F112A (antibody, V domains shown)
VH: B3 VH with A98K, F112A
VL: B3 VL
[4]
  Percent Similarity Score (%): 8%

B7: can9L12VH_V101A (antibody, V domains shown)
VH: B3 VH with A98K, V101A
VL: B3 VL
[4]
  Percent Similarity Score (%): 5.29%

Source: US20210214449A1 (ZOETIS SERVICES, published 2021)
